This assay concerns the target T1, human CD99ecd/GST (human, UniProt P14209 23-122).
T1 construct: Expressed in E. coli BL21(DE3), purified on Glutathione Sepharose; also called CD99ecd/GST antigen; recombinant CD99; not shown: glutathione-S-transferase as encoded by vector pGEX-2T (GE Healthcare); CD99ecd fused downstream of it through the BamHI
T1 sequence: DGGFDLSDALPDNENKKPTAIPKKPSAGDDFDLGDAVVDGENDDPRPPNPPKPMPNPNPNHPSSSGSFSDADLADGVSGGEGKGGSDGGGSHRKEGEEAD
The assay is described as follows: competitive ELISA (Rath 1988), CD99ecd/GST coated and soluble CD99ecd/GST as inhibitor. On the procedure: The binding affinity, expressed as the dissociation constant (kd) of scFv C7, C7dAbd, C7IgG4 and C7IgG1 for CD99, was determined by analysing the saturation of binding at equilibrium with a competitive ELISA assay according to the procedure described in Rath S 1988 with small variations. […] For this purpose, 96-well plates were sensitized by distributing 500 ng/well of CD99ecd/GST diluted in 0.5M carbonate buffer, pH 9.6, and incubating ON at 4° C. After 3 washes with PBS supplemented with 0.05% V/V of Tween20, the plates were blocked with a 1% W/V solution of BSA in PBS (PBSB), pH 7.4, for 60 min. at 37° C. After washing, the plates were incubated for 1 hour at 37° C. with serial dilutions of C7 (from 200 μg/ml to 0.03 μg/ml in triplicate) diluted in PBSB and dispensed (100 μl/well). The plates were incubated at 37° C. for 90 minutes. After washing a dilution of polyclonal anti-scFv diluted 1:500 in PBSB was dispensed, 100 μl/well, and incubated for 60 minutes at 37° C. […]
A competitive ELISA assay was then set up. […] The scFvC7 and C7 diabody signal was determined by dispensing, in a first step, a polyclonal anti-scFv antibody generated in rabbits immunized with scFvC7 and diluted 1:500 v/v in PBSB and subsequently with an anti-rabbit HRP diluted 1:1000 v/v. […]
In general terms: ELISA stands for enzyme-linked immunosorbent assay.

B1: C7IgG4 (antibody)
heavy: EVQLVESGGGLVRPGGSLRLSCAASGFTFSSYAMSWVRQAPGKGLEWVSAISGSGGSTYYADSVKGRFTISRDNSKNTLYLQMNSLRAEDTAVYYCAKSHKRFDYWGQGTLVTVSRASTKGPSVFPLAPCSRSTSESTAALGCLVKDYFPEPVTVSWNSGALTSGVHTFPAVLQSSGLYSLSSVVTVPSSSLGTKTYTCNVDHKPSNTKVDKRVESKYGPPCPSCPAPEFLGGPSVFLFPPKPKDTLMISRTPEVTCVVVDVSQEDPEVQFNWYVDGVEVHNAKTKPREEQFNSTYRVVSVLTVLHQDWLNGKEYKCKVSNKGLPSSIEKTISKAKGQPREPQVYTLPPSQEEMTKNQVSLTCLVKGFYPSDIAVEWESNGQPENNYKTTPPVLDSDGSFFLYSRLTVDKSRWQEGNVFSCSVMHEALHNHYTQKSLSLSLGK
light: SSELTQDPAVSVALGQTVRITCQGDSLRSYYASWYQQKPGQAPVLVIYGKNNRPSGIPDRFSGSSSGNTASLTITGAQAEDEADYYCNSSFPRTSSVVFGGGTKLTVLGQPKANPTVTLFPPSSEELQANKATLVCLISDFYPGAVTVAWKADGSPVKAGVETTKPSKQSNNKYAASSYLSLTPEQWKSHRSYSCQVTHEGSTVEKTVAPTECS
notes: VH and VL of scFvC7 fused to human IgG4 constant regions; produced in Expi293F cells; also called IgG4wt; C7IgG4 wt
Broadly, the Kd is the equilibrium constant for the complex coming apart. A lower Kd goes with tighter binding. Molecule B1 showed a Kd of 0.00586 µM.

B2: C7IgG1 (antibody)
heavy: not shown
light: B1 light
notes: VH and VL of scFvC7 fused to human IgG1 constant regions; produced in Expi293F cells
The molecule B2 registered a Kd of 9 µM.

(Values after patent publication US20210230292A1 (DIATHEVA S R L, published 2021).)
